Paper PMC11649927

Experiments:
Assay in all cases: cryo-EM structure; single-particle cryo-EM of S trimers in situ on PFA-fixed, concentrated virions; C3 symmetry for the 3-closed-RBD maps, focused classification for 1-open-RBD trimers
[1] = molecular target: SARS-CoV-2 spike (S) protein of the Alpha variant (B.1.1.7), on virions (SARS-CoV-2)
[2] = molecular target: SARS-CoV-2 spike (S) protein of the Mu variant (B.1.621), on virions (SARS-CoV-2)
[3] = molecular target: SARS-CoV-2 spike (S) protein of the Delta variant (B.1.617.2), on virions (SARS-CoV-2)
[4] = molecular target: SARS-CoV-2 spike (S) protein of the Gamma variant (P.1), on virions (SARS-CoV-2)
[5] = molecular target: SARS-CoV-2 spike (S) protein of the B.1 variant (B.1.238), on virions (SARS-CoV-2)

Q: “SARS-CoV-2 spike (S) protein of the Alpha variant (B.1.1.7), on virions (natural protein)” was tested. Which stoichiometry N [1] did it give?
A: 3

Q: Which stoichiometry N [2] does the source give for “SARS-CoV-2 spike (S) protein of the Mu variant (B.1.621), on virions (natural protein)” here?
A: 3

Q: With “SARS-CoV-2 spike (S) protein of the Delta variant (B.1.617.2), on virions (natural protein)” as the substance, how does the stoichiometry N [3] read?
A: 3

Q: “SARS-CoV-2 spike (S) protein of the Gamma variant (P.1), on virions (natural protein)” was tested. Which stoichiometry N [4] did it give?
A: 3

Q: “SARS-CoV-2 spike (S) protein of the B.1 variant (B.1.238), on virions (natural protein)” was tested. Which stoichiometry N [5] did it give?
A: 3
